Measured values: patent publication US20120208291A1

Molecular target: acceptor complex of syntaxin linked to SNAP-25 (UniProt O16000)
Assay: KISMI single-molecule imaging

Chain of UniProt O16000 (O16000 1-265, one chain of several): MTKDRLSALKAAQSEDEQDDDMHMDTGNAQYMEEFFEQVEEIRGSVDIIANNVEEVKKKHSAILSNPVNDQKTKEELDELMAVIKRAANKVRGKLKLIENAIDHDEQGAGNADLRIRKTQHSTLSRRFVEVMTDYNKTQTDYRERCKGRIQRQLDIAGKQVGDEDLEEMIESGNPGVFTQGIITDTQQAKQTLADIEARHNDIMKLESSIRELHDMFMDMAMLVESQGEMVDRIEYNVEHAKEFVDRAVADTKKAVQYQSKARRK

synaptobrevin (from UniProt O02495 1-86)
Kd: 1700 nM
